Assay results from patent EP4628095A1 (Xiamen University, dated 2025).

Columns and labels:
[1] = biological target: T1, P1-5B-RBD (insect cell expression system); test: SPR (Biacore 8K), HEV-p239 coupled to CM5 chip (Fig. 10A)
T1 construct: also called VHH-RBD; P1-5B-RBD fusion protein

[2] = biological target: T2, P2-3D-RBD (insect cell expression system); test: as above
T2 construct: also called VHH-RBD

[3] = biological target: T3, P2-3E-RBD (insect cell expression system); test: as above
T3 construct: also called VHH-RBD

[4] = biological target: T4, P2-3A-RBD (insect cell expression system); test: as above
T4 construct: also called VHH-RBD

[5] = biological target: T5, P2-5C-RBD (mammalian cell expression system); test: SPR (Biacore 8K), HEV-p239 coupled to CM5 chip (Fig. 10B)
T5 construct: also called VHH-RBD

[6] = biological target: T6, P1-5B-RBD (mammalian cell expression system); test: as above
T6 construct: also called VHH-RBD

[7] = biological target: T7, P2-3E-RBD (mammalian cell expression system); test: as above
T7 construct: also called VHH-RBD

[8] = biological target: T8, P2-2C-RBD (mammalian cell expression system); test: as above
T8 construct: also called VHH-RBD

[9] = biological target: T9, P2-3A-RBD (mammalian cell expression system); test: as above
T9 construct: also called VHH-RBD

Measured: binding result

B1: HEV-p239 protein (other)
chain: IALTLFNLADTLLGGLPTELISSAGGQLFYSRPVVSANGEPTVKLYTSVENAQQDKGIAIPHDIDLGESRVVIQDYDNQHEQDRPTPSPAPSRPFSVLRANDVLWLSLTAAEYDQSTYGSSTGPVYVSDSVTLVNVATGAQAVARSLDWTKVTLDGRPLSTIQQYSKTFFVLPLRGKLSFWEAGTTKAGYPYNYNTTASDQLLVENAAGHRVAISTYTTSLGAGPVSISAVAVLAPHSV
notes: also called HEV-p239 particles; HEV particles
binds: all assays above
